From patent CN106589116A (INST MICROBIOLOGY CAS, dated 2017)

B1: Z5 (antibody, V domains shown)
VH: QVQLQESGHRLVKPSETLSLTCTVSGGSISSDPYLWGWIRQPPGKGLEWIGSIYHSGSAYYNPSLKSRVTLSVDTSRNQFSLKVNSVTATDTAVYYCVEVAPPEKWGRGILVTVSS
VL: QSALTQPPSASGSPGQSVTISCTGTSSDVGGYNYVSWYQQHPGKAPKLMIYAVNKRPSGVPDRFSGSKSGNTASLTVSRLQDDDEADYYCSSYGGSNNILFGGGTKLTVLG
notes: also called 克隆Z5; 人源单克隆抗体Z5
B2: Z7 (antibody, V domains shown)
V domain 1: QVQLQESGPGLVKPSETLSLTCTVFGGSVNNPTNYWGWIRQSPGKGLEWIGSVYYTGINYYNPSLESRVTIAVVTSKNQFSLKLTSVTATDTAVYYCARHPRPETGYDFDYWGQGTLVTVSS
V domain 2: QSVLTQPPSVSAAPGQKVTISCSGSSSNIGNNYVSWYQQLPGTAPKLLLYDNNKRPSGTPDRFSGSKSGTSATLGIAGLQTGDEAVYHCATWDSSLSAEVFGGGTQVTVLG
notes: also called 克隆Z7; 人源单克隆抗体Z7
B3: Z6 (antibody, V domains shown)
VH: QVQLQESGPGLVKPSETLSLICTVSGGSISTRDYYWGWIRQTPGKGLEWIGSIYYSGGTYYSPSLKSRVTISVDTSKNQFSLKLRSVTAADTAVYYCARQWGNYFDHWGQGSLVTVSS
VL: DIVLTQSPSFLSASVGDRVTITCRASQGIDTYLAWYQQKPGKAPKLLIYGASTLQSGVPSRFSGSGSGTEFTLTISSLQPEDFATYYCQQLNNYHFTFGPGTKVDIKR
notes: also called 克隆Z6; 人源单克隆抗体Z6

Molecular target: ZIKV-E蛋白 (寨卡病毒E蛋白胞外区, C端6*His, 大肠杆菌表达复性) (Zika virus, UniProt A0A024B7W1 291-699)
Sequence (A0A024B7W1 291-699, tags left off): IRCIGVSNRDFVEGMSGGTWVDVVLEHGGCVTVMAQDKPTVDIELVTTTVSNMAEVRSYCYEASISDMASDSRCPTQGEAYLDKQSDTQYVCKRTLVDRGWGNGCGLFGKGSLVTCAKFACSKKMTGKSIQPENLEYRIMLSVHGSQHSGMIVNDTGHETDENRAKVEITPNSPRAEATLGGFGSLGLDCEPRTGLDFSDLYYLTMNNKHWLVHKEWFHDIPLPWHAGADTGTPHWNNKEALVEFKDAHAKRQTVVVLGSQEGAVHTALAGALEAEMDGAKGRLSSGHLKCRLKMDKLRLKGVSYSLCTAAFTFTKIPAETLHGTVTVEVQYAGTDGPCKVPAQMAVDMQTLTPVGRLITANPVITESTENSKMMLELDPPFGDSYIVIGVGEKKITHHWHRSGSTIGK
Experiment: SPR, Biacore T100, antibody captured by anti-human IgG on CM5, ZIKV-E as analyte

Compared with B1, B2 is 5-fold higher in Kd: 0.0399 nM for the first, 0.2 nM for the second.

In the case of B3, the Kd is reported as 0.0447 nM.
